The values that follow come from patent US20090068736A1 (TRUSTEES OF DARTMOUTH COLLEGE, published 2009).

Sequences and labels used below:
B1: A10 (peptide)
peptide: RRRPRPPYLAR
B2: A7 (peptide)
peptide: RRRPRPAYLPR
B3: A3 (peptide)
peptide: RRAPRPPYLPR
B4: A1 (peptide)
peptide: ARRPRPPYLPR
B5: AAR (peptide)
peptide: AARPRPPYLPR
B6: AAA-PR11 (peptide)
peptide: AAAPRPPYLPR
B7: A11 (peptide)
peptide: RRRPRPPYLPA
B8: F8W12 (peptide)
peptide: RRRPRPPFLPRW
B9: G9 (peptide)
peptide: RRRPRPPYGPR
B10: K3 (peptide)
peptide: RRKPRPPYLPR
B11: RAA (peptide)
peptide: RAAPRPPYLPR
B12: A6 (peptide)
peptide: RRRPRAPYLPR
B13: PR11 (peptide)
peptide: RRRPRPPYLPR
B14: W12 (peptide)
peptide: RRRPRPPYLPRW
B15: A2 (peptide)
peptide: RARPRPPYLPR
B16: PR39 (peptide)
peptide: RRRPRPPYLPRPRPPPFFPPRLPPRIPPGFPPRFPPRFP
B17: E8 (peptide)
peptide: RRRPRPPELPR
B18: E8W12 (peptide)
peptide: RRRPRPPELPRW
B19: ARA (peptide)
peptide: ARAPRPPYLPR
B20: K1 (peptide)
peptide: KRRRPPYLPR
B21: A5 (peptide)
peptide: RRRPAPPYLPR
B22: KKK (peptide)
peptide: KKKPRPPYLPR
B23: A1E8 (peptide)
peptide: ARRPRPPELPR
B24: A4 (peptide)
peptide: RRRARPPYLPR
B25: K2 (peptide)
peptide: RKRPRPPYLPR
B26: A8W12 (peptide)
peptide: RRRPRPPALPRW
B27: K1E8 (peptide)
peptide: KRRPRPPELPR

Where only a bound is given, the exact number is not on record here.

The assay addresses Mammalian (Human) 20S Proteasome (Mammalian (Human)). In words: cell-based or functional assay.
Consider B1, for which the “I50 (µM), inhibition of chymotrypsin-like (ChT-L) peptidase activity of 20S proteasome, N-succinyl-LLVY-AMC substrate” value (shortened to “I50 (µM), inhibition”) was 0.782 µM.

As for B2, the “I50 (µM), inhibition” value amounted to 0.851 µM.

On to B3, for which the “I50 (µM), inhibition” value stood at 3.15 µM.

Consider B4, for which the “I50 (µM), inhibition” value turned out to be 2.81 µM.

Regarding B5, the “I50 (µM), inhibition” value stood at 14.5 µM.

In the case of B6, the “I50 (µM), inhibition” value was over 100 µM.

For the molecule B7, the “I50 (µM), inhibition” value stood at 0.685 µM.

Take B8: the “I50 (µM), inhibition” value came out at 0.034 µM.

Turning to B9, the “I50 (µM), inhibition” value is 0.137 µM.

On to B10, for which the “I50 (µM), inhibition” value is 0.819 µM.

Take B11: the “I50 (µM), inhibition” value was found to be 20.1 µM.

In the case of B12, the “I50 (µM), inhibition” value is 1.22 µM.

In the case of B13, the “I50 (µM), inhibition” value worked out at 0.805 µM.

For the molecule B14, the “I50 (µM), inhibition” value was found to be 0.006 µM.

B15: the “I50 (µM), inhibition” value stood at 2.77 µM.

B16: the “I50 (µM), inhibition” value is 0.004 µM.

With B17, the “I50 (µM), inhibition” value turned out to be 2.37 µM.

Consider B18, for which the “I50 (µM), inhibition” value came to 2.62 µM.

In the case of B19, the “I50 (µM), inhibition” value was found to be 11.3 µM.

B20: the “I50 (µM), inhibition” value came out at 0.595 µM.

For the molecule B21, the “I50 (µM), inhibition” value was determined as 2.65 µM.

For the molecule B22, the “I50 (µM), inhibition” value was 2.71 µM.

In the case of B23, the “I50 (µM), inhibition” value came to 49.4 µM.

For B24, the “I50 (µM), inhibition” value was 4.99 µM.

In the case of B25, the “I50 (µM), inhibition” value amounted to 0.543 µM.

Consider B26, for which the “I50 (µM), inhibition” value is 0.715 µM.

In the case of B27, the “I50 (µM), inhibition” value turned out to be 6.34 µM.
